Reference: the DeepSol protein solubility set

Assay: soluble on expression in E. coli; label from the status in PepcDB or PDB records

Sequence	soluble on expression in E. coli
MTTFRQHRWQSFLQGYEQRARILISCPDRPGIVAAVTSFLYEQGANIVESSQYSTDPEGGTFFLRLEFDCPNIAERKEEIEAAFAPIAAEFEMRWQLRLHNDIRRIAIFVSKAEHCLLELLWQWQAGELIADIALVISNHPDLRETVESFGIPYVHIPVTKETKADAEAEQIRLLRDYQIDTIVLARYMQILSPAFVAEFSGRIINIHHSFLPAFIGARPYERAYERGVKLIGATSHYVTDDLDEGPIIEQDVARVDHRHHPDDLKRIGRLIEKTVLARALRWHLEDRVIIHGNKTIVFY	soluble
MTTKDEVKTLWKLCFNDSDEFTDLYFKMRYKDEVNRVIREDGKIISALQMIPYPMTFCDEVISTSYISGACTHPDYRKHGAMKRLLKETHRCMYEDGVLLASLIPAEEWLFGYYARSGYAPVFGYAVEQVRVDRLCPAPGCRIEVCEFPGVEHYHYFDSRMHGRRSCIQHPKEDFLVIMADLRLGNGKLLVAWEADKIVGMAFTVMGDDTLYIKELLADTDAVQDTLLYEAAHIYKVQRMDYFIPSSADTLFLGMARVIRAEELLKVFAHKYPASELYIHIEGDEAIQENNGYYTVRDGFCFRERVPEKKYHTYTLDGFTRLLLEAEHPYMSLMLN	soluble
MTTNPIELESCIIDQIRCPECALTCLQKNIYRHMTQIHNWTTEDCQELIAAIKSEKKSRASSTSFVCCHCRMIFRSVKHLVQHKKMCTEQPQHDNEHLDVYIDEMIVEGEEEVVGINEYDINETKESTQKPSTSSGDSFEMNIPPHRQASRPIQPHHLTQECQIATIIEKPSKFSLMQLPGKYRGCNLKCPECSSTSESLDEFLLHCRQEHMSHDQKFNLEREFFQSRDQFKEWFDQRQEDTCTSLTKRTGHAGETLYRCHRVGKYQSVAKSRKSNPRKIDQTCTAYLKVTTEEDGSTWATGCFTHIGHDLDHKLLWLTESQEKYVRELIDLGWTSDQIFFFIRNEYKDYECKLKYISKNDIRNITVRYNREREKLGFLTDTAKSSAIPISLKERRAVAADSTKEPREEDDDEVKAKIPRMQSKPDNIEKATTSENNSAKHREQVVDSETAEEDEYINVVDVDTMPPNDAGKITIGLNF	not soluble
MTTPPPRMLPSGDTAITVEFGRDISDESNRRVLALDRKLKQAPIAGILETVPTYRSLLVHYDPETIGFGALSDQLTALAHTSDESETVAKRRWRIPVCYGGEHGIDLEDAAQALNITPDALVARHAAGDYRVAMIGFTPGWSYLSGLDPALAMPRRQAPRLHTPAGTISVGGIQTGIQCLAGPSGWHLLGRTPVRTYQLHREPIFLLEPGDAISFAQIDAKEFAERDDAASHGEVVAELLSALEHHHHHH	soluble
MTTTIEVGMLGLGTVGSGVVERLTRSAAKIEQTQGIRLHLAAVAVNHLNAPRTVQLPIGTRLTDSLTNVVCDRKIQLVIEVMGTVATAKKAIVAALNQGKAVVTANKDLIATAGPELAALAKKQGCDLFYEASVAGGIPILRTLTDSYVTDNVQAVSGIINGTANYMLSAMATGQSYEQALATAQATGYAEADPTNDVAGIDAAYKLMILSRFAFGQELSLPQIAPTGITHLSASVCRLAAENGWQIKLLAQIQRHGSGLYCRVAPVAVPVDQPLSQINGVQNAVAVQSEAIGTSLYTGPGAGSTATANSVLNDVLVAAKHLINGYRMIRNQKRSVSLTVTRFDQLPQTYLGIGPVAPEAVKYYANEADFSVKTIADDCYQITGLSAVKRKKLRANLPLTLIPIAGTTDWKQVTENSITSPINVAILEHHHHHH	soluble
MTTTLKAIVRKPRTDGLYAVYIRIVHNRKPGYIKTNKIVDADHISKDNEPTDPVVNEYCSMLVRQYTDRLNRANTTLWSVSEIIEYLLKTDEEVCFSDYSRMFIRQMRLDGHERNAKNYQLAVAHLERYMGTTRVMFGHLTAAVLKKWIESLSKTHRAKEMYPTNVRMIFRSAIADMNDDEKGIQRIKFDPWVKVQIPKSEPSEKLAISAEECREFFNRPLPRTKMLSSLPELGRDVALLSLCLGGINTVDLYNLKKSDYHDGIIGYKRAKTKHSRKDEAYIEMRVEPFIQDTFNKYLSEEEDEFLFTFHQRYGNTDSFNANVNIGIRKICMDMGMTNKEDFYCFYTFRHTWATIAQNDCNANLYEVAFGMNHSHGFKVTRGYVKVDFTPAWALNARIIDFIFFSNKPSKQGLAKDLDESGDKMFRISAKMMIYARAYFKGEVIAEFTDIGFNNVDEVLSRIVKMFPKDIPVGCTVQIRLTNCDNHKEVVYERSKGKGF	not soluble
MTVPHIPRGPVMADIAAFRLTEEEKQRLLDPAVGGIILFRRNFQNIEQLKTLTAEIKALRTPELIIAVDHEGGRVQRFIEGFTRLPAMSTLGEIWDKDGASAAETAAGQVGRVLATELSACGIDLSFTPVLDLDWGNCPVIGNRSFHRNPEAVARLALALQKGLTKGGMKSCGKHFPGHGFVEGDSHLVLPEDWRSLSELETADLAPFRIMSREGMAAVMPAHVVYPQVDTKPAGFSEIWLKQILRRDIGFKGVIFSDDLTMEGACGAGGIKERARISFEAGCDIVLVCNRPDLVDELREDFRIPDNPTLAQRWQYMANTLGSAAAQAVMQTADFQAAQAFVAGLASPQDTAGGVKVGEAF	not soluble
MTVTFTLPLDCSFNNLWTCHAEGIERDLGKVGGGAASSGKTSTGVSRTVTRGVNLSGADFSEQDLSGVSFQQSLLRETDFHGAKLVSASFFGAELSYANLEDADLTEANLELANLRSAKLKNAVLRRAYFSGNTRLENVDIDGADFSEVILRKDQKKYLCNIANGTNSHTGVETKTSLGCNSS	not soluble
MTWLTKDGRFAVYEDPFVTKLMNTIGSMTFDGLGFTLLELYRDLVISADNYFMNYVNYGETPHDVGEESIEDPIYGASYPYWWTDLGPTLVLMLYRDYVFTSNREILEKNYNKIKEIIDWLIRKDMDNDCIPDSKGGYDNSYDGTHMYGASSYIASMFLSALTAFIKMSEILDVKIDDKYYRFLECGKKTFNSLWNGKYFILWKKNDEENTSCLNSQLLGQFWCDILGLPPITDHDKINTALRSIYELNFKASKYCLTNAVREDGSVDSSTAQLRSCWPRVSFAVAAHMILRGMVKEGIEVAKREWETIKELNPFDQSSRIDAIDGKYVGLMSYIGSTSVWLLKLALDKIRLEHHHHHH	not soluble
MTYLVTGATGGLGGYALNYLKELVPMSDIYALVRSKEKGADLKAAGFNIRVGDYSDAESMKQAFAGIDRVLFVSGAPGNRQVEHENVINAAKKAGVSYIAYTSFAGADKSTSALAEDHFFTEKVIEKSGIAHTFLRNNWYFENEMPMIGGALSAGKFVYAAENGKVGWALKREYAEVAAKAVAGAGFPEILELSGPLMTYEELTKALKEATGKDFDVISSDDKGFVENLVSVGLPQPVAEMFLSFQHDIKNDQLDVTSDDFEKALGKPLTNRVDALRELLKLEHHHHHH	soluble
MTYTVGMYLAERLVQIGLKHHFAVAGDYNLVLLDQLLLNKDMKQIYCCNELNCGFSAEGYARSNGAAAAVVTFSVGAISAMNALGGAYAENLPVILISGAPNSNDQGTGHILHHTIGKTDYSYQLEMARQVTCAAESITDAHSAPAKIDHVIRTALRERKPAYLDIACNIASEPCVRPGPVSSLLSEPEIDHTSLKAAVDATVALLEKSASPVMLLGSKLRAANALAATETLADKLQCAVTIMAAAKGFFPEDHAGFRGLYWGEVSNPGVQELVETSDALLCIAPVFNDYSTVGWSAWPKGPNVILAEPDRVTVDGRAYDGFTLRAFLQALAEKAPARPASAQKSSVPTCSLTATSDEAGLTNDEIVRHINALLTSNTTLVAETGDSWFNAMRMTLPRGARVELEMQWGHIGWSVPSAFGNAMGSQDRQHVVMVGDGSFQLTAQEVAQMVRYELPVIIFLINNRGYVIEIAIHDGPYNYIKNWDYAGLMEVFNAGEGHGLGLKATTPKELTEAIARAKANTRGPTLIECQIDRTDCTDMLVQWGRKVASTNARKTTLALEHHHHHH	soluble
MVASYEIEFIGEGEVAGILREALRTDSRVESFEEFERGFKLRLVGAKRRITIVCKGSVQSDDCLLIVNARKMPENGGIALNADKIAERCGSKPEIAMLGAIAKLGVVDLKRLMSVIYREMGYGDVLAVKKGFEATNI	not soluble
MVATLIIIRGNSASGKSTIAKQLQAELGENTLLLSQDYLRREMLGTKDGENTTTIPLLINLLNYGYHNCSYIILEGILRSDWYTPVWKHILKHNPNNTYAYYYDLSFQETVKRHSTR	not soluble
